According to the supplement of paper PMC10724198:
± gives the standard deviation of the averaged measurements.

Legend:
Saccharomyces cerevisiae [1] = experiment: protein stability index of tFT-peptide fusion (C-terminal peptide) (PSI (0-1 scale)); higher = more stable (slower turnover)
Experimental: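 MPS profiling in S. cerevisiae of the tFT-X12 degron library: putative degron peptides plus stable controls, 12 aa, fused to the C-terminus of a sfGFP-mCherry timer. Cells are FACS-sorted into 8 mCherry/sfGFP bins and deep-sequenced. PSI runs from 0 (unstable) to 1 (stable). Backgrounds are wild type, das1Δ and doa10Δ at 30 °C, and wild type, das1Δ, cdc34-1 and cdc53-1 at 37 °C; 2-3 technical replicates each.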

Saccharomyces cerevisiae [2] = experiment: as above; settings: genetic background: wild type; temperature: 30 C
[3] = genetic background: cdc34-1, temperature: 37 C
[4] = genetic background: cdc53-1, temperature: 37 C
[5] = genetic background: das1 deletion, temperature: 30 C
[6] = genetic background: das1 deletion, temperature: 37 C
[7] = genetic background: doa10 deletion, temperature: 30 C
[8] = genetic background: wild type, temperature: 30 C
[9] = genetic background: wild type, temperature: 37 C
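Further: PSI is a weighted mean of sequencing reads over stability bins, variants kept only with over 10 reads, mCherry proximal and sfGFP distal, peptide attached via GGGS linker.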

Sequence | protein stability index (Saccharomyces cerevisiae [1]; [3]) | protein stability index (Saccharomyces cerevisiae [1]; [4]) | protein stability index (Saccharomyces cerevisiae [1]; [5]) | protein stability index (Saccharomyces cerevisiae [1]; [6]) | protein stability index (Saccharomyces cerevisiae [1]; [7]) | protein stability index (Saccharomyces cerevisiae [1]; [8]) | protein stability index (Saccharomyces cerevisiae [1]; [9]) | protein stability index (Saccharomyces cerevisiae [2])
LLVSVVFVSRFF | 0.378 ± 0.024 | 0.465 ± 0.075 | 0.272 ± 0.038 | 0.514 ± 0.0092 | 0.213 ± 0.0049 | 0.251 ± 0.035 | 0.444 ± 0.006 | 0.387 ± 0.053
LLWALGLVLVEG | 0.152 ± 0.033 | 0.193 ± 0.026 | 0.217 ± 0.022 | 0.2919 ± 0.0014 | 0.171 ± 0.0078 | 0.204 ± 0.029 | 0.281 ± 0.015 | 0.377 ± 0.029
LNLACCWFVRCR | 0.311 ± 0.035 | 0.339 ± 0.011 | 0.253 ± 0.035 | 0.4215 ± 0.00083 | 0.2269 ± 0.00044 | 0.261 ± 0.021 | 0.399 ± 0.015 | 0.349 ± 0.03
LNSSVLRLRFFV | 0.542 ± 0.027 | 0.739 ± 0.063 | 0.607 ± 0.037 | 0.756 ± 0.04 | 0.0882 ± 0.011 | 0.098 ± 0.024 | 0.152 ± 0.041 | 0.2643 ± 0.0019
LPLCGLLLFLFF | 0.472 ± 0.024 | 0.5394 ± 0.0043 | 0.433 ± 0.024 | 0.5302 ± 0.0025 | 0.42 ± 0.024 | 0.42 ± 0.015 | 0.492 ± 0.022 | 0.435 ± 0.0059
LPLQPPPPVCLP | 0.65583 ± 3.7e-05 | 0.7163 ± 0.0065 | 0.629 ± 0.024 | 0.7199 ± 0.0036 | 0.634 ± 0.031 | 0.644 ± 0.018 | 0.69 ± 0.011 | 0.376 ± 0.022
LPPFGLFLFVFI | 0.437 ± 0.034 | 0.466 ± 0.0094 | 0.31 ± 0.044 | 0.517 ± 0.0074 | 0.274 ± 0.008 | 0.285 ± 0.029 | 0.498 ± 0.01 | 0.366 ± 0.018
LPPSTFLLHFLL | 0.667 ± 0.046 | 0.714 ± 0.011 | 0.656 ± 0.013 | 0.744 ± 0.0099 | 0.218 ± 0.018 | 0.232 ± 0.026 | 0.415 ± 0.0062 | 0.317 ± 0.0077
LPTGLKTFLIAF | 0.481 ± 0.0085 | 0.485 ± 0.031 | 0.414 ± 0.025 | 0.541 ± 0.026 | 0.374 ± 0.0094 | 0.405 ± 0.027 | 0.519 ± 0.0071 | 0.461 ± 0.02
LPVPARPFPPSS | 0.662 ± 0.027 | 0.713 ± 0.0083 | 0.684 ± 0.024 | 0.711 ± 0.014 | 0.705 ± 0.031 | 0.688 ± 0.021 | 0.6907 ± 0.0012 | 0.714 ± 0.0095
LQSYVSRLVRLS | 0.618 ± 0.082 | 0.745 ± 0.027 | 0.653 ± 0.041 | 0.7356 ± 0.00043 | 0.191 ± 0.0033 | 0.186 ± 0.036 | 0.359 ± 0.055 | 0.295 ± 0.015
LRFFLPFLLSLP | 0.519 ± 0.043 | 0.596 ± 0.015 | 0.55 ± 0.036 | 0.6588 ± 0.0031 | 0.158 ± 0.0035 | 0.164 ± 0.022 | 0.292 ± 0.0041 | 0.2418 ± 0.0021
LRFSLLRVGWLC | 0.652 ± 0.053 | 0.681 ± 0.017 | 0.58 ± 0.0099 | 0.732 ± 0.022 | 0.28 ± 0.0089 | 0.336 ± 0.037 | 0.561 ± 0.011 | 0.434 ± 0.0087
LRGIVSVWILRA | 0.501 ± 0.034 | 0.56 ± 0.0093 | 0.441 ± 0.017 | 0.605 ± 0.0076 | 0.149 ± 0.0028 | 0.148 ± 0.0039 | 0.282 ± 0.0057 | 0.249 ± 0.025
LRLLSLIPPLSC | 0.494 ± 0.022 | 0.535 ± 0.05 | 0.381 ± 0.039 | 0.53 ± 0.016 | 0.34 ± 0.011 | 0.385 ± 0.026 | 0.52 ± 0.011 | 0.467 ± 0.0065
LRSPCALVLLLI | 0.495 ± 0.022 | 0.5317 ± 0.0035 | 0.376 ± 0.029 | 0.556 ± 0.0056 | 0.213 ± 0.0037 | 0.237 ± 0.024 | 0.441 ± 0.0051 | 0.336 ± 0.0096
LSAVISLRIQLS | 0.595 ± 0.093 | 0.603 ± 0.051 | 0.518 ± 0.032 | 0.546 ± 0.0071 | 0.3636 ± 0.0016 | 0.379 ± 0.04 | 0.4919 ± 0.0018 | 0.449 ± 0.021
LSFFICSFFFVL | 0.514 ± 0.045 | 0.556 ± 0.014 | 0.456 ± 0.03 | 0.5798 ± 0.0013 | 0.344 ± 0.006 | 0.361 ± 0.021 | 0.5113 ± 0.0012 | 0.408 ± 0.013
LSFLSLIFSICY | 0.43162 ± 0.0004 | 0.449 ± 0.054 | 0.356 ± 0.021 | 0.526 ± 0.066 | 0.355 ± 0.0012 | 0.333 ± 0.037 | 0.474 ± 0.012 | 0.461 ± 0.022
LSGDIPWSFVPV | 0.743 ± 0.04 | 0.766 ± 0.046 | 0.654 ± 0.011 | 0.787 ± 0.02 | 0.673 ± 0.028 | 0.677 ± 0.031 | 0.75756 ± 0.0002 | 0.738 ± 0.033
LSIGCRCLWGWF | 0.718 ± 0.029 | 0.7548 ± 0.004 | 0.631 ± 0.013 | 0.762 ± 0.022 | 0.577 ± 0.009 | 0.5967 ± 0.0059 | 0.708 ± 0.026 | 0.465 ± 0.051
LSLCPVHRLLVL | 0.558 ± 0.02 | 0.632 ± 0.032 | 0.481 ± 0.025 | 0.624 ± 0.007 | 0.358 ± 0.0063 | 0.379 ± 0.034 | 0.5327 ± 0.0015 | 0.498 ± 0.03
LSLSPRLPRLVA | 0.613 ± 0.015 | 0.659 ± 0.018 | 0.537 ± 0.014 | 0.663 ± 0.0015 | 0.156 ± 0.0087 | 0.197 ± 0.023 | 0.377 ± 0.026 | 0.283 ± 0.038
LSRFGSTCPSGL | 0.72 ± 0.038 | 0.7696 ± 0.0062 | 0.642 ± 0.011 | 0.765 ± 0.032 | 0.6358 ± 0.0032 | 0.638 ± 0.012 | 0.7477 ± 0.0031 | 0.724 ± 0.0079
LSRHLILFIVIR | 0.0962 ± 0.042 | 0.0846 ± 0.02 | 0.172 ± 0.014 | 0.2805 ± 0.0024 | 0.289 ± 0.019 | 0.174 ± 0.019 | 0.2008 ± 0.00073 | 0.272 ± 0.036
LSVYFSLSLCVS | 0.363 ± 0.014 | 0.451 ± 0.0063 | 0.384 ± 0.025 | 0.462 ± 0.011 | 0.392 ± 0.0084 | 0.399 ± 0.017 | 0.429 ± 0.017 | 0.448 ± 0.02
LTCTSTPMACRV | 0.562 ± 0.067 | 0.589 ± 0.021 | 0.443 ± 0.026 | 0.596 ± 0.011 | 0.429 ± 0.015 | 0.475 ± 0.013 | 0.5859 ± 0.0028 | 0.452 ± 0.0075
LVCLPVGFFLMW | 0.565 ± 0.084 | 0.638 ± 0.0074 | 0.47 ± 0.034 | 0.634 ± 0.0072 | 0.388 ± 0.0045 | 0.411 ± 0.013 | 0.576 ± 0.0068 | 0.4899 ± 0.0037
LVCLVFVRSSLV | 0.268 ± 0.0043 | 0.571 ± 0.079 | 0.25 ± 0.024 | 0.529 ± 0.0096 | 0.205 ± 0.0029 | 0.232 ± 0.038 | 0.457 ± 0.017 | 0.339 ± 0.022
LVCSRFLFAFHC | 0.45678 ± 0.00016 | 0.686 ± 0.022 | 0.604 ± 0.037 | 0.699 ± 0.014 | 0.076 ± 0.0097 | 0.0796 ± 0.0047 | 0.104 ± 0.012 | 0.145 ± 0.011
